According to US20250042994A1 (HAINAN SIMCERE ZAIMING PHARMACEUTICAL, published 2025):

T1: human CD19 exon1-3-his protein (human, UniProt P15391 20-186, limits assumed)
T1 construct: made in HEK293E cells; also called membrane-distal end; not shown: His tag
T1 sequence (looked up): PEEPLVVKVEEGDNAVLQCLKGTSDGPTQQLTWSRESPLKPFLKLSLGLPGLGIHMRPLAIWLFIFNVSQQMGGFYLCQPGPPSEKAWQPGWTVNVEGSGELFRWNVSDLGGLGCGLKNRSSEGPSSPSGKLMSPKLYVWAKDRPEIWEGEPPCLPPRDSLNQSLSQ

T2: murine CD19 protein (murine, UniProt P25918 17-287, limits assumed)
T2 construct: bought protein; also called commercial murine CD19
T2 sequence (looked up): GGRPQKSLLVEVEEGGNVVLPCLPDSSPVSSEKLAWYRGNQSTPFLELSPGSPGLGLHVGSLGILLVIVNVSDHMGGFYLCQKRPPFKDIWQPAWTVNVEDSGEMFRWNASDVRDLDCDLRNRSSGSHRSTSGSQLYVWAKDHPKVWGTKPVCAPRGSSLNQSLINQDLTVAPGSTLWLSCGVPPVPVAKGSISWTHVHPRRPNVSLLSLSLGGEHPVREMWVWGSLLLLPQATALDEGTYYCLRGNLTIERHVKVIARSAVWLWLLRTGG

T3: Human CD19-his protein (human, UniProt P15391 20-291)
T3 construct: bought protein; also called human CD19 protein; recombinant human CD19-His; not shown: His tag
T3 sequence (looked up): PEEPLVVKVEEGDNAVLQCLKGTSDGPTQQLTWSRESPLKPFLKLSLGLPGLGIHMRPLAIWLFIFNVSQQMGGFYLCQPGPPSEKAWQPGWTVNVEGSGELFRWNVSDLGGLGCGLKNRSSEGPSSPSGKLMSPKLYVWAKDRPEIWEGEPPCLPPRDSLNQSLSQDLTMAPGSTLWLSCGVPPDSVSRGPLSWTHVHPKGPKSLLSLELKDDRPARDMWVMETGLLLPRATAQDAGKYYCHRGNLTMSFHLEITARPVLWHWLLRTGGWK


Experiments:
[1] = biological target: T1, human CD19 exon1-3-his protein; assay: ELISA, coated at 2 ug/mL
[2] = biological target: T2, murine CD19 protein; assay: ELISA, coated murine CD19
In short: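 Plates coated overnight at 4° C with recombinant murine or monkey CD19 and blocked with 2% BSA. Chimeric antibodies, serially diluted from 100 nM, bound for 2 h at 37° C. TMB development for 10 min with OD450 read-out.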

[3] = biological target: T3, Human CD19-his protein; assay: ELISA, antibody at 10 nM
[4] = biological target: T3, Human CD19-his protein; assay: ELISA, antibody at 100 nM
[5] = biological target: T3, Human CD19-his protein; assay: ELISA, antibody at 0.01 nM
[6] = biological target: T3, Human CD19-his protein; assay: ELISA, antibody at 0.10 nM
[7] = biological target: T3, Human CD19-his protein; assay: ELISA, antibody at 1.00 nM
[8] = biological target: T3, Human CD19-his protein; assay: ELISA, antibody at 0.001 nM
[9] = biological target: T3, Human CD19-his protein; assay: ELISA, antibody at 0.0001 nM
[10] = biological target: T3, Human CD19-his protein; assay: ELISA on coated human CD19-His

Binder	binding result [1]	binding result [2]	OD450 [3]	OD450 [4]	OD450 [5]	OD450 [6]	OD450 [7]	OD450 [8]	OD450 [9]	EC50 (read off the curve) [10] [nM]
F4.22.6 (antibody, human IgG1, V domains shown, human-murine chimeric antibody, human IgG1) VH: QVQLQQSGPELVKPGASVKISCKASGYAFSSFWMNWVKQRPGQGLEWIGRIYPGDGDTNYNGKFKGKATLTADKSSTTAYMHLSSLTSVDSAVYFCTRSVITAVVDWYFDVWGAGTTVTVSS VL: QIVLSQSPAILSASPGEKVTLTCRASSSVNFMHWYQQKPGSSPKPWIYATSNLASGAPARFSGSGSGTSYSLTISRVEAEDAAAYYCQQWSSYPIFTFGSGTKLEIK	no binding	no binding	0.96	0.88	0.17	0.62	0.83	0.08	0.06	~0.05
F4.48.12 (antibody, human IgG1, V domains shown, human-murine chimeric antibody, human IgG1) VH: QMQLKESGPGLVAPSQSLSITCTVSGFSLTDYGVSWIRQPPGKGLEWLGVIWGSGSTFYNSALTSRLSISKDNSKSQVFLKMNSLQTADTAMYFCAKHHYYGGSFAMDYWGQGTSVTVSS VL: DIQMTQASSSLSASLGDRVTISCKTSQDISNYLNWYQQKPDGTFKLLIHYTSRLHSGVPSRFSGSGSGSDYSLTISNLEREDIATYFCQQGNSLPYTFGGGTKLEMK	no binding	no binding	1.76	1.93	0.38	1.56	1.89	0.09	0.06	~0.03
F4.33.12 (antibody, human IgG1, V domains shown, human-murine chimeric antibody, human IgG1) VH: QVQLQQSGAELVRPGSSVKISCKGSGYAFSSYWMNWVKQRPGQGLEWIGQIYPGDGDTNYNGKFKGKATLTADKSSSTAYMQLSSLTSEDSAVYFCARAGFYYGSDSSMDYWGQGTSVTVSS VL: not shown	no binding	no binding	1.72	1.64	0.11	0.51	1.37	0.06	0.05	~0.3
F4.41.1 (antibody, human IgG1, V domains shown, human-murine chimeric antibody, human IgG1) VH: QVQLQQSGAELVRPGTSVKVSCKASGYAFTNYLIEWVKQRPGQGLEWIGVINPGSGDTLYNEKFKGKATLTADKSSTTAYMQLSGLTSDVSAIYFCARSPPITTIVADYFDYWGQGTTLTVSS VL: DIQMTQTTSSLSASLGDRVTISCRASQDISNYLNWYQQKPDGTVKLLIYYTSRLHSGVPSRFSGSGSGADYSLTISNLEQEDIATYFCQQGKTLPYTFGGGTKLEIK	no binding	no binding	0.61	0.68	0.07	0.16	0.43	0.05	0.05	~0.5
F3.133.14 (antibody, human IgG1, V domains shown, human-murine chimeric antibody, human IgG1) VH: QVQLQQPGAELVMPGASVKLSCKASGYTFTNYWMHWVKQRPGQGLEWIGEIDPSDYYANYNQKFKGKATLTVDKSSSTAYMQLSSLTSEDSAVYYCARSHYYANSYNYWGQGTTLTVSS VL: EIELTQSPTTMAASPGEKITITCSASSSISSDYLHWYQQKPGFSPKLLIYRTSNLASGLPARFSGSGSGTSYSLTIGTMEAEDVATYYCQQGSSVPRMLTFGAGTKLELK	no binding	no binding	1.87	1.62	0.12	0.58	1.59	0.07	0.05	~0.2
F4.21.2 (antibody, human IgG1, V domains shown, human-murine chimeric antibody, human IgG1) VH: QVQLKQSGPGLVQPSQSLSITCTVSGFSLSTYGVHWVRQSPGRGLEWLGVIWIGGTTDYNAAFISRLTISKDNSRGQVFFKMDSLQANDTAIYYCARKGYYKYDGGYYYAMDYWGQGTSVTVSS VL: DIQMTQSSSYLSVSLGGRVTITCKASDHINNWLAWYQQKPGNAPWLLISGATSLETGVPSRFSGSGSGKDYTLSISSLQTEDVATYYCQQYWSTPLTFGAGTKLELK	no binding	no binding	1.94	1.9	0.29	1.1	1.98	0.1	0.07	~0.07
